Results published in patent US20180208678A1 (UNIVERSITY OF CHICAGO, published 2018).

What was measured:
[1] = biological target: BgaD-D, smallest isozyme of the β-galactosidase from B. circulans ATCC 31382 (Biolacta) (Bacillus circulans ATCC 31382); assay: Kd table; method not given
[2] = biological target: BgaD-D, smallest isozyme of the β-galactosidase from B. circulans ATCC 31382 (Biolacta) (Bacillus circulans ATCC 31382); assay: bead assay with purified proteins, biotinylated monobody on streptavidin beads (FIG. 3B)
[3] = biological target: T1, Candida rugosa lipase 1 (CRL1) (Candida rugosa, UniProt P20261 16-549, biotinylated with NHS-LC-biotin, about 2 biotin per CRL1 molecule (binding assays)); assay: cell-based or functional assay
[4] = biological target: T1, Candida rugosa lipase 1 (CRL1); assay: yeast-surface display of the monobody, CRL1 titrated, flow cytometry, 1:1 fit [panel a]
Description: Affinity of monobodies to CRL1 was determined using yeast-surface display, as described previously. Yeast cells displaying a monobody were incubated with varying concentrations of CRL1, washed with the buffer and stained with appropriate fluorescently labeled secondary detection reagents, prior to analysis on a flow cytometer (Guava EasyCyte 6/L, Millipore). KD values were determined from plots of the mean fluorescent intensity against CRL1 concentration by fitting the 1:1 binding model using SigmaPlot software (Systat Software).

[5] = biological target: BgaD-D, smallest isozyme of the β-galactosidase from B. circulans ATCC 31382 (Biolacta) (Bacillus circulans ATCC 31382); assay: Kd table; yeast-surface display (paragraph 202 repeats it as 12±3 nM)
[6] = biological target: BgaD-D active site mutant E447R (Bacillus circulans ATCC 31382); assay: bead assay, purified proteins, target given as BgaD-D/ER, titrated 0-1000 nM shown, 1:1 fit [panel a]
[7] = biological target: BgaD-D, smallest isozyme of the β-galactosidase from B. circulans ATCC 31382 (Biolacta) (Bacillus circulans ATCC 31382); assay: bead assay, purified proteins: biotinylated monobody on streptavidin-coated beads, BgaD-D titrated (0-1000 nM shown), flow cytometry, 1:1 fit [panel b]
[8] = biological target: BgaD-D, smallest isozyme of the β-galactosidase from B. circulans ATCC 31382 (Biolacta) (Bacillus circulans ATCC 31382); assay: bead assay, purified proteins, target given as BgaD-D/WT, titrated 0-1000 nM shown, 1:1 fit [panel a]
[9] = biological target: BgaD-D, smallest isozyme of the β-galactosidase from B. circulans ATCC 31382 (Biolacta) (Bacillus circulans ATCC 31382); assay: KD (nM) to BgaD-D; assay not given; the values equal those of the bead assay with purified proteins in FIG. 3B [panel c]
[10] = biological target: BgaD-D, smallest isozyme of the β-galactosidase from B. circulans ATCC 31382 (Biolacta) (Bacillus circulans ATCC 31382); assay: cell-based or functional assay
[11] = biological target: BgaD-D active site mutant E447Q (Bacillus circulans ATCC 31382); assay: bead assay, purified proteins, target given as BgaD-D/EQ, titrated 0-1000 nM shown, 1:1 fit [panel a]
[12] = biological target: BgaD-D active site mutant E447K (Bacillus circulans ATCC 31382); assay: bead assay, purified proteins, target given as BgaD-D/EK, titrated 0-1000 nM shown, 1:1 fit [panel a]
[13] = biological target: BgaD-D, smallest isozyme of the β-galactosidase from B. circulans ATCC 31382 (Biolacta) (Bacillus circulans ATCC 31382); assay: Kd table; yeast-surface display (paragraph 202 repeats it as 600±170 nM)

B1: Mb(BgaD_L14) (designed binder)
chain: VSSVPTKLEVVAATPTSLLISWDASSYYGVVSYYRITYGETGGNSPVQEFTVPGYSSTATISGLKPGVDYTITVYASYYYWYTSYTKSPISINYRT
In the case of B1, the Kd [1] is reported as 37 nM and the Kd [2] is reported as 31 nM.

B2: Mb(BgaD_S07) (designed binder)
chain: VSSVPTKLEVVAATPTSLLISWDAPAVTVDLYLITYGETGFSYGFPQAFTVPGSKSTATISGLKPGVDYTITVYASTVDGHSSPISINYRT
In the case of B2, the Kd [1] is reported as 488 nM.

B3: Mb(CRL_L18) (designed binder)
chain: VSSVPTKLEVVAATPTSLLISWDAMQYSEYDVTYYRITYGETGGNSPVQEFTVPGSSSTATISGLKPGVDYTITVYAVWQYMHYMHSYSPISINYRT
notes: 109 is Mb(S19)); also called Mb(L18)
In the case of B3, the “CRL1 activity toward C8 triacylglyceride (fold reduction relative to CRL1 alone)” value [3] is reported as 11 fold, the “CRL1 activity toward C10 triacylglyceride (fold reduction relative to CRL1 alone)” value [3] is reported as 102 fold and the “CRL1 activity toward C12 triacylglyceride (fold reduction relative to CRL1 alone)” value [3] is reported as 4.5 fold. The Kd [4] was 54 nM.

B4: Mb(BgaD_L04) (designed binder)
chain: VSSVPTKLEVVAATPTSLLISWDAYEHWSGVYYYRITYGETGGNSPVQEFTVPGSSSTATISGLKPGVDYTITVYAYSYSYASMYSPISINYRT
For B4, the Kd [1] was 137 nM.

B5: Mb(BgaD_L01) (designed binder)
chain: VSSVPTKLEVVAATPTSLLISWDAMDHTPYVYYYRITYGETGGNSPVQEFTVPGYYSTATISGLKPGVDYTITVYAGDLSWNFDFYSPISINYRT
B5 gave a Kd [1] of 163 nM.

B6: Mb(BgaD_L03) (designed binder)
chain: VSSVPTKLEVVAATPTSLLISWDAGDYWVYYYRITYGETGGNSPVQEFTVPGYSSTATISGLKPGVDYTITVYAGDLSFNTYYYSPISINYRT
For B6, the Kd [1] was 76 nM.

B7: Mb(BgaD_L23) (designed binder)
chain: VSSVPTKLEVVAATPTSLLISWDAFDGYWYDYVSFYRITYGESGGNSPVQEFTVPSSSSTATISGLKPGVDYTITVYAYSHSQQQYLSPNSINYRT
For B7, the Kd [5] was 12 nM, the Kd [6] was 227 nM and the Kd [7] was 25 nM. The Kd [8] was 25 nM, the Kd [9] was 25 nM and the production of DP4 by BgaD-D (fold reduction) [10] was 4.5 fold. It also gave a production of DP5+ by BgaD-D (fold reduction) [10] of 30 fold, a Kd [11] of 46 nM and a Kd [12] of 156 nM.

B8: Mb(BgaD_L19) (designed binder)
chain: VSSVPTKLEVVAATPTSLLISWDAFDGYWYDYVSYYRITYGETGGNSPVQEFTVPSSSSTATISGLKPGVDYTITVYAYSHSQQQYLSPISINYRT
In the case of B8, the Kd [6] is reported as 224 nM, the Kd [7] is reported as 37 nM and the Kd [8] is reported as 37 nM. The Kd [13] was 598 nM, the Kd [11] was 72 nM and the Kd [12] was 173 nM.

B9: Mb(BgaD_L24) (designed binder)
chain: VSSVPTKLEVVAAAPTTLLISWDAFDGYWYDYVSYYRITYGETGGNSPVQEFTVPSSSSTAIISGLKPGVDYTITVYAYHHSQQQYLSPISINYRT
B9 gave a Kd [1] of 11 nM.

B10: Mb(BgaD_L22) (designed binder)
chain: VSSVPTKLEVVAATPTSLLISWDAFDGYWYDYVSYYRITYGETGGNSPVQVFTVPSSSSTATISGLKPGVDYTITVYAYSHSQLQYLSPISINYRT
Work on B10 yielded a Kd [1] of 33 nM.

B11: Mb(BgaD_S11) (designed binder)
chain: VSSVPTKLEVVAATPTSLLISWDAPAVTVVLYVITYGETGPGHSAWPQAFTVPGSKSTATISGLKPGVDYTITVYAYWDWDSHRYSPISINYRT
Work on B11 yielded a Kd [1] of 246 nM.

B12: Mb(CRL_L24) (designed binder)
chain: VSSVPTKLEVVAATPTSLLISWDASSSSVSYYRITYGETGGNSPVQEFTVPGSSSTATISGLKPGVDYTITVYAFGHYYGSWVWSPISINYRT
notes: also called Mb(L24)
B12 gave a Kd [4] of 9.3 nM.

B13: Mb(CRL_L23) (designed binder)
chain: VSSVPTKLEVVAATPTSLLISWDASSSSVSYYRITYGETGGNSPVQEFTVPGSSSTATISGLKPGVDYTITVYAFGHYYGSWAWSPISINYRT
notes: Mb(L23) and Mb(L24) differ by one residue and could be 116/117 in either order; also called Mb(L23)
For B13, the Kd [4] was 11 nM.

B14: Mb(BgaD_L05) (designed binder)
chain: VSSVPTKLEVVAATPTSLLISWDAYKSLGGVDYYRITYGETGGNSPVQEFTVPGSSSTATISGLKPGVDYTITVYAGYLWYPYGEWSPISINYRT
Work on B14 yielded a Kd [1] of 515 nM.

B15: Mb(BgaD_S08) (designed binder)
chain: VSSVPTKLEVVAATPTSLLISWDAPAVTVDLYVITYGETGGSSWPQAFTVPGSKSTATISGLKPGVDYTITVYAHSWDHSYSPISINYRT
For B15, the Kd [1] was 214 nM.

B16: Mb(BgaD_L02) (designed binder)
chain: VSSVPTKLEVVAATPTSLLISWDANGWNYVKYYRITYGETGGNSPVQEFTVPGSSSTATISGLKPGVDYTITVYAYEYYSESSSSPISINYRT
With B16 the Kd [6] was 11 nM, the Kd [7] was 9.9 nM and the Kd [8] was 9.9 nM. It also gave a Kd [9] of 9.9 nM, a Kd [1] of 5.7 nM and a Kd [11] of 12 nM. For the same binder, the Kd [12] was 11 nM.

B17: Mb(BgaD_L18) (designed binder)
chain: VSSVPTKLEVVAATPTSLLISWDAESWYWPYYVSYYRITYGETGGNSPVQEFTVPSSSSTATISGLKPGVDYTITVYAFEHHEQRYYSPISINYRT
B17 gave a Kd [1] of 147 nM.

B18: Mb(BgaD_S13) (designed binder)
chain: VSSVPTKLEVVAATPTSLLISWDAPAVTVVFYVITYGETGVHWPGYQKFTVPGSKSTATISGLKPGVDYTITVYAQFPWYMGSPISINYRT
B18 showed a Kd [1] of 50 nM.

B19: 1Mb39 S (designed binder)
chain: VSSVPTKLEVVAATPTSLLISWDAPAVTVDFYLITYGETGGPSWPQAFAVPGSKSTATISGLKPGVDYTITVYASSSSRISSSSSKPISINYRT
B19 showed a Kd [1] of 476 nM.

B20: Mb(BgaD_S09) (designed binder)
chain: VSSVPTKLEVVAATPTSLLISWDAPAVTVVYYVITYGETGGNSPVQEFTVPGSKSTATISGLKPGVDYTITVYAYSDQVEYYEYFYGSPISINYRT
For B20, the Kd [6] was 157 nM, the Kd [7] was 171 nM and the Kd [8] was 171 nM. For the same binder, the Kd [9] was 171 nM, the Kd [1] was 184 nM and the Kd [11] was 239 nM. It also gave a Kd [12] of 178 nM.

B21: Mb(BgaD_S10) (designed binder)
chain: VSSVPTKLEVVAATPTSLLISWDAPAVTVVFYLITYGETGASSWPGYQEFTVPGSKSTATISGLKPGVDYTITVYAQYPWDTGSPISINYRT
For B21, the Kd [6] was 16 nM, the Kd [7] was 13 nM and the Kd [8] was 13 nM. The Kd [9] was 13 nM, the Kd [1] was 15 nM and the Kd [11] was 16 nM. It also gave a Kd [12] of 12 nM.

B22: Mb(BgaD_S06) (designed binder)
chain: VSSVPTKLEVVAATPTSLLISWDAPAVTVVFYVITYGETGAAVWPGHQEFTVPGSKSTATISGLKPGVDYTITVYAQGGRWKSSPISINYRT
With B22 the Kd [1] was 24 nM.

B23: Mb(BgaD_S12) (designed binder)
chain: VSSVPTKLEVVAATPTSLLISWDAPAVTVVFYIITYGETGAAVWPGHQEFTVPGSKSTATISGLKPGVDYTITVYAVGPWDYYSPISINYRT
B23 gave a Kd [1] of 18 nM.
